# Measurements from PMC10350915, “Development of a New Class of CXCR4-Targeting Radioligands Based on the Endogenous Antagonist EPI-X4 for Oncological Applications” (Journal of Medicinal Chemistry, 2023).
# Square brackets hold non-standard residues; d marks the D form. Peptide text beside a SMILES is read from it. * marks the point of attachment. DOTA = O=C(O)CN1CCN(CC(=O)O)CCN(CC(=O)*)CCN(CC(=O)O)CC1
# What was measured:
# in vivo = conditions: female, athymic nude-Foxn1^nu/Foxn1^+, mouse, iv, 200 pmol, total radioactivity
# Procedure: Quantification of the total body distribution of ^177Lu-7 and ^68Ga-7 was performed in Jurkat xenografted mice after intravenous injection of 100 μL, 200 pmol, with […], respectively (n = 5). The mice were sacrificed at 1 h p.i. ^177Lu-7 and ^68Ga-7 accumulated mainly in the kidneys (83.1 ± 25.5 and 75.6 ± 30.3%IA/g, respectively, p = 0.59), liver (5.19 ± 1.08 and 4.08 ± 1.05%IA/g, respectively, p = 0.07) and tumor (2.25 ± 0.43 and 2.24 ± 0.57%IA/g, respectively, p = 0.97), as already seen in the SPECT/CT and PET/CT images (Figures 6 and 7). Uptake in the tumor was lower than for the kidneys and liver but higher as in all other tissues investigated. […] The uptake seen in the liver might be attributed, at least partially, to the fact that CXCR4 is constitutively expressed in the sinusoidal endothelial cells of the murine liver[38] or could be related to another yet-unknown mechanism previously reported for other CXCR4-targeting probes.[11],[39] Regretfully, there are no direct measurements available for the affinity of ^177Lu-7 with the murine CXCR4 (mCXCR4). This is relevant for assessing its total body distribution. However, we have shown that EPI-X4 and EPI-X4 derivatives are active in mouse models of inflammatory diseases[22],[25] and cancer.[40] More specifically, EPI-X4 derivatives such as JM#21 reduced immune cell influx in lungs of mice suffering from allergic asthma or reduced skin inflammation in a murine model of atopic dermatitis upon topical administration. […] Thus, we speculate that the DOTA conjugate of JM#173 (ligand-7) also cross-reacts to the mCXCR4. […] Last, but not the least, the uptake in the kidneys was predominant, and given the highly hydrophilic character of ^177Lu-7, is attributed, at least partially, to its excretion via this path.
# (§1) The experimental protocol involving animals was approved by the Veterinary Office (Department of Health) of the Cantonal Basel-Stadt (Approval No. 30515) in accordance with the Swiss regulations for animal treatment. Female athymic nude-Foxn1^nu/Foxn1^+ mice (Envigo, The Netherlands), 4–6 weeks old, were injected subcutaneously with 10^7 Jurkat cells in a 200 μL (1:1) mixture of PBS and Matrigel (CorningMatrigelMembrane matrix, Fischer Scientific, Germany) on the right shoulder. The tumors were allowed to grow for 3–4 weeks before commencement of the experiments.
# Quantitative biodistribution studies of ^177Lu-7 (100 μL, 200 pmol, 0.8–1 MBq) and ^68Ga-7 (100 μL, 200 pmol, 2–3 MBq) were performed after intravenous injection of the radioligand via the tail vein on Jurkat xenografts. […] 1 h after injection of the radioligand, mice were sacrificed, organs of interest and blood were collected, rinsed of excess blood, blotted dry, weighed, and counted in a γ-counter. The samples were counted against a suitable diluted aliquot of the injected solution as the standard and the results are expressed as percentage injected activity per gram of tissue (%IA/g). Statistical analysis between selected organs was performed by Welch’s t-test and p values <0.05 were considered statistically significant.
# Jurkat xenografts = format: in vivo, mouse; conditions: 1 h p.i., SPECT/CT or PET/CT
# Procedure: The ability of the ^177Lu ligands to target CXCR4 in vivo was assessed by SPECT/CT imaging in Jurkat xenografts. […] 1 h after injection, the remaining amount of radioligand in the body (and vice versa, the washout) was quantified by measuring the total body activity (mouse) in a dose calibrator. The % of the radioligand remaining in the body after 1 h is reported in Figure 6A as % of the remaining activity in reference to the injected activity (100%).
# Figure 6 SPECT/CT images as maximum intensity projections (MIPs) of Jurkat tumor-bearing mice at 1 h p.i. of ^177Lu-labeled ligands (200 pmol, ∼15 MBq). […] (B) Same SPECT/CT images of ^177Lu-1, ^177Lu-2, ^177Lu-5, and ^177Lu-6, adapted in a lower scale. T: tumor, L: liver, and K: kidneys. […] TEXT PRINTED IN THE PICTURE: (A) ^177Lu-1: Remaining Activity (% injected): 6 % | (A) ^177Lu-2: Remaining Activity (% injected): 7 % | (A) ^177Lu-5: Remaining Activity (% injected): 7 % | (A) ^177Lu-6: Remaining Activity (% injected): 8 % | (A) ^177Lu-7: Remaining Activity (% injected): 55 % | (A) ^177Lu-9: Remaining Activity (% injected): 94 %
# as §1
# Nude mice bearing Jurkat xenografts were intravenously injected via the tail vein with ∼15 MBq (200 pmol) of the ^177Lu ligands and 8 MBq (200 pmol) of ^68Ga-7 were euthanized 1 h post injection (p.i.). The radioactivity in the syringe before and after injection was measured followed by measuring the amount of radioactivity remaining in the sacrificed mice. […]
structure (smiles),measurement,setting,value
"CC[C@@H](C)[C@@H](N)C(=O)N[C@@H](CC(C)C)C(=O)N[C@@H](CCCNC(=N)N)C(=O)N[C@@H](Cc1c[nH]c2ccccc12)C(=O)N[C@@H](CO)C(=O)N[C@@H](CCCNC(=N)N)C(=O)N[C@@H](CCCCN)C(=O)N[C@@H](CCCCNC(=O)CN1CCN(CC(=O)O)CCN(CC(=O)O)CCN(CC(=O)O)CC1)C(N)=O [^177Lu-7, metal not drawn] (H-[dI]LRWSRKK(DOTA)-NH2; N-terminus assumed)",tissue uptake at 1 h,in vivo; uptake in blood,0.42 ± 0.12 %ID/g
same,tissue uptake at 1 h,in vivo; uptake in femur,1.06 ± 0.28 %ID/g
same,tissue uptake at 1 h,in vivo; uptake in heart,0.21 ± 0.05 %ID/g
same,tissue uptake at 1 h,in vivo; uptake in intestine,0.37 ± 0.1 %ID/g
same,tissue uptake at 1 h,in vivo; uptake in kidney,83.1 ± 25.5 %ID/g
same,tissue uptake at 1 h,in vivo; uptake in liver,5.19 ± 1.08 %ID/g
same,tissue uptake at 1 h,in vivo; uptake in muscle,0.27 ± 0.14 %ID/g
same,tissue uptake at 1 h,in vivo; uptake in pancreas,0.14 ± 0.02 %ID/g
same,tissue uptake at 1 h,in vivo; uptake in spleen,0.81 ± 0.16 %ID/g
same,tissue uptake at 1 h,in vivo; uptake in stomach,0.3 ± 0.06 %ID/g
same,tissue uptake at 1 h,in vivo; uptake in tumor,2.25 ± 0.43 %ID/g
same,visualization of CXCR4-expressing tumor xenograft by imaging,Jurkat xenografts,accumulated and visualized the CXCR4-expressing tumor xenograft
